Paper PMC4359947
Ends that are not written are not given here.

Target: MAGI-1 PDZ3 domain, Cy3-labelled, tag-free
Assay: FRET or BRET

Binder: GAIPVMIPAQSKDGSIV (also: Cy5 label (approximately 1 dye/peptide), site not given here) [CAR (CAR^Ex7) C-terminus, Cy5-labelled, tag-free]
- Kd: 2 nM
